Columns and labels:
[1] = molecular target: δ receptor (δ-Binding assay, replacement of 3H-naltrindole); test: δ-Binding, replacement of 3H-naltrindole (radioligand displacement)
[2] = molecular target: µ-receptor (guinea pig ileum preparation) (guinea pig); test: cell-based or functional assay
[3] = molecular target: δ-receptor (mouse vas deferens preparation) (mouse) (UniProt P32300); test: cell-based or functional assay
Chain of δ-receptor (mouse vas deferens preparation) (mouse) (P32300 whole entry, stated change not applied): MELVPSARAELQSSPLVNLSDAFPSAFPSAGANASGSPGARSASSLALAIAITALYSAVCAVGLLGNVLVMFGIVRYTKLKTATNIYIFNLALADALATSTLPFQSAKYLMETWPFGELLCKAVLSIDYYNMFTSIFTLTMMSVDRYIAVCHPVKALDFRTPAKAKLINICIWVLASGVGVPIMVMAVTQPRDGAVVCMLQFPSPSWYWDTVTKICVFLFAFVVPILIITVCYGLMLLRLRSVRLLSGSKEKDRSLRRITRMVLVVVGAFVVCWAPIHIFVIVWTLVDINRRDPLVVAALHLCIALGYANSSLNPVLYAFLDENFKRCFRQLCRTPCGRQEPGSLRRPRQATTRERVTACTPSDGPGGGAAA

| IC50 [1] [nM] | GPI IC50 [2] [nM] | MVD IC50 [3] [nM] | Substance |
| --- | --- | --- | --- |
| 7 |  |  | Tyr-c[D-AlaL-Gly-Phe-L-AlaL]-NH2 (peptide) |
|  | 1.51 |  | Tyr-c[D-Cys-Gly-Phe-L-Cys]-NH2 (peptide) |
|  | 3.06 |  | Tyr-c[D-Cys-Gly-Phe-L-Cys]-OH (peptide) |
|  | 7300 | 4.1 | Tyr-c[D-Pen-Gly-Phe-D-Pen]-OH (peptide) |
| 1 |  |  | Tyr-c[D-AlaL-Gly-Phe-L-AlaL]-OH (peptide) |
|  | 0.78 |  | Tyr-c[D-Cys-Gly-Phe-D-Cys]-NH2 (peptide) |
